Source: patent publication CN110606891A (L&L BIOPHARMA CO LTD, dated 2019)

T1: 鼠CLDN18.2 (mCLDN18.2), claudin-18 isoform A2.1 [Mus musculus], NP_001181850.1 (mouse, UniProt P56857 10-264)
T1 construct: also called 鼠CLDN18.2+细胞; mCLDN18.2+ cell
T1 chain: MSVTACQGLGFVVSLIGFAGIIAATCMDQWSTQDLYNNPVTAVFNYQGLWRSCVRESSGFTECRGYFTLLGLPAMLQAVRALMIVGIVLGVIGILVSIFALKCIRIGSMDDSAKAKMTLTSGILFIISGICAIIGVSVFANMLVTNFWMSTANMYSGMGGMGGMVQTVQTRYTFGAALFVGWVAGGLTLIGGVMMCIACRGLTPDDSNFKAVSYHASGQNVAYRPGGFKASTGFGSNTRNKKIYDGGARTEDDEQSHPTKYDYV

T2: 鼠CLDN18.1 (mCLDN18.1), claudin-18 isoform A1.1 precursor, NP_062789.1 (mouse, UniProt P56857 1-264)
T2 construct: also called 鼠CLDN18.1+ 细胞; mCLDN18.1+ cell
T2 sequence: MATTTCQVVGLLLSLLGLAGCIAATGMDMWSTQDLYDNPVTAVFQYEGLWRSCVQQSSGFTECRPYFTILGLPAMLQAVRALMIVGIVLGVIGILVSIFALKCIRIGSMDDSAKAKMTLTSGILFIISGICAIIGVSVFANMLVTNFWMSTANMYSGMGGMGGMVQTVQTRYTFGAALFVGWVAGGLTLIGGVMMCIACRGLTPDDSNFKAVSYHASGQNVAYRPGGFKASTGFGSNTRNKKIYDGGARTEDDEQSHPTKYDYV

T3: 人CLDN18.1 (hCLDN18.1), claudin-18 isoform 1 precursor [Homo sapiens], NP_057453.1 (human, UniProt P56856 1-261)
T3 construct: No signal peptide limits stated for this entry; also called 人CLDN18.1+ 细胞; hCLDN18.1+ cell
T3 sequence: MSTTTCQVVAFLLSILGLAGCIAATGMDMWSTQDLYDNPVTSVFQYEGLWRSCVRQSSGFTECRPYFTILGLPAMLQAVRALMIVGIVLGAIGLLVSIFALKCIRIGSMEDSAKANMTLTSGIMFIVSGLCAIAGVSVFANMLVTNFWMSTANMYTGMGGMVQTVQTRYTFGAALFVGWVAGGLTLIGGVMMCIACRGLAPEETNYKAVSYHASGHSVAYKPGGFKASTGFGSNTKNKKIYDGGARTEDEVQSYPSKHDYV


Assays:
[1] = target: T1, 鼠CLDN18.2 (mCLDN18.2), claudin-18 …; assay: cell ELISA on mCLDN18.2+ cells, against Ref
[2] = target: T1, 鼠CLDN18.2 (mCLDN18.2), claudin-18 …; assay: cell ELISA on mCLDN18.2+ cells
[3] = target: T1, 鼠CLDN18.2 (mCLDN18.2), claudin-18 …; assay: cell ELISA on mCLDN18.2+ cells (Table 23)
[4] = target: T2, 鼠CLDN18.1 (mCLDN18.1), claudin-18 …; assay: cell ELISA on mCLDN18.1+ cells
[5] = target: T4, 人CLDN18.2 (hCLDN18.2), claudin-18 isoform 2 [Homo sapiens], NP_001002026.1 (human); assay: cell-based or functional assay
[6] = target: T3, 人CLDN18.1 (hCLDN18.1), claudin-18 …; assay: cell ELISA on hCLDN18.1+ cells
[7] = target: T3, 人CLDN18.1 (hCLDN18.1), claudin-18 …; assay: cell ELISA, hybridoma supernatant on hCLDN18.1+ cells
[8] = target: T4, 人CLDN18.2 (hCLDN18.2), claudin-18 …; assay: cell ELISA, hybridoma supernatant on hCLDN18.2+ cells
[9] = target: T4, 人CLDN18.2 (hCLDN18.2), claudin-18 …; assay: cell ELISA on hCLDN18.2+ cells (Table 16a)

EC50 [3]	Emax [3]	binding result [4]	CDC EC50 (人血清补体对hCLDN18.2+细胞, LDH) [5]	结合活性 (ELISA) [7]	结合活性 (ELISA) [8]	Binder	further results
375 pM	2.17	–	–	–	–	anti-hCLDN18.2抗体mab5b (重组表达) (antibody, human IgG1, kappa, V domains shown, also called 鼠源抗体mab5b) VH: QVQLQQSGAELIGPGTSVKVSCKASGYAFSNYLIEWVKQRPEQGLEWIGLINPGSGGTNYNEKFKGKATLTADKSSSTAYMQLSSLTSDDSAVYFCARVYYGNSFAYWGQGTLVTVSA VL: DIVMTQSPSSLTVTAGEKVTMSCKSSQSLLNSGNQKNYLTWYQQKPGQPPKLLIYWASTRESGVPDRFTGSGSGTHFTLTISSVQAEDLAVYYCQNDYFYPFTFGSGTKLEKKR	结合活性 (EC50) 比Ref好的倍数 [1]: > 4 倍; EC50 [2]: 182 pM
518 pM	2.18	no binding	1.75 µg/mL	–	–	Ab36抗体 (antibody, human IgG1, kappa, V domains shown, Ab6 with NS->NT in light CDR1 and heavy CDR3; hIgG1 / kappa) VH: QVQLVQSGAEVKKPGSSVKVSCKASGYAFSNYLIEWVKQAPGQGLEWIGLINPGSGGTNYNEKFKGKATITADKSTSTAYMELSSLRSEDTAVYYCARVYYGNTFAYWGQGTLVTVSS VL: DIVMTQSPDSLAVSLGERATISCKSSQSLLNTGNNKNYLAWYQQKPGQPPKLLIYWASTRESGVPDRFSGSGSGTDFTLTISSLQAEDVAVYYCQNDYFYPFTFGQGTKLEIKR	–
474 pM	1.91	no binding	2.12 µg/mL	–	–	Ab51抗体 (antibody, human IgG1, kappa, V domains shown, hIgG1 (DEL) / kappa; also called L21/H64 DEL) VH: QVQLVQSGAEVKKPGSSVKVSCKASGYAFSNYLIEWVRQAPGQGLEWMGLINPGSGGTNYNEKFKGRVTITADESTSTAYMELSSLRSEDTAVYYCARVYYGNTFAYWGQGTLVTVSS VL: DIVMTQSPDSLAVSLGERATINCKSSQSLLNTGNNKNYLAWYQQKPGQPPKLLIYWASTRESGVPDRFSGSGSGTDFTLTISSLQAEDVAVYYCQNDYFYPFTFGQGTKLEIKR	–
371 pM	2.27	no binding	–	–	–	人源化Ab10抗体 (antibody, human IgG1, kappa, V domains shown, Humanized, hIgG1 (356-358 DEL) / kappa; also called L14/H51) VH: QVQLVQSGAEVKKPGSSVKVSCKASGYAFSNYLIEWVKQAPGQGLEWIGLINPGSGGTNYNEKFKGKATITADKSTSTAYMELSSLRSEDTAVYYCARVYYGNSFAYWGQGTLVTVSS VL: DIVMTQSPDSLAVSLGERATISCKSSQSLLNSGNQKNYLTWYQQKPGQPPKLLIYWASTRESGVPDRFSGSGSGTDFTLTISSLQAEDVAVYYCQNDYFYPFTFGQGTKLEIKR	binding result [6]: no binding
–	–	–	–	1.19	1.62	mab1 (初始杂交瘤克隆 F2A4, 上清) (antibody, V domains shown) VH: EVQLLESGGGLVQPGGSLRLSCAASGFTFSSYGMGWVRQAPGKGLEWVAAITRDSSTNYGAAVKGRATISRDNSKNTLYLQMNSLRAEDTAVYYCAKDASNGYCWYTGRGSYSCGAHHIDAWGQGTLVTVSS VL: SYELTQPPSVSVSPGQTARITCSGGYNGHYGWYQQKPGQAPVTVIYSNNQRPSGIPERFSGSSSGTTVTLTISGVQAEDEADYYCGGYDSSAGIFGGGTKLTVL	–
–	–	–	–	0.448	0.671	mab3 (初始杂交瘤克隆 C6F9, 上清) (antibody, V domains shown) VH: EVQLLESGGGLVQPGGSLRLSCAASGFTFRSYAMMWVRQAPGKGLEWVGEISSTGGSTYYGSAVKGRATISRDNSKNTLYLQMNSLRAEDTAVYYCAKSTYGATWKSADSIDAWGQGTLVTVSS VL: SYELTQPPSVSVSPGQTARITCSGGYNGHYGWYQQKPGQAPVLVIYSNNQRPSGIPERFSGSSSGTTVTLTISGVQAEDEADYYCGGYDSSAGIFGGGTKLTVL	–
–	–	–	–	0.123	0.176	mab2 (初始杂交瘤克隆 F6B1, 上清) (antibody, V domains shown) VH: EVQLLESGGGLVQPGGSLRLSCAASGFTFSSYGMSWVRQAPGKGLEWVAGIGSSGSDTWYADSVKGRFTISRDNSKNTLYLQMNSLRAEDTAVYYCAKDATNGYCWYTGRGSYSCGAHHIDAWGQGTLVTVSS VL: SYELTQPPSVSVSPGQTARITCSGGSGSYGYYGWYQQKPGQAPVTVIYGTNKRPSGIPERFSGSSSGTTVTLTISGVQAEDEADYYCGGYDSSAGIFGGGTKLTVL	–
–	–	–	0.927 µg/mL	–	–	Ab66 (L21, H61, hIgG1 Fc S239D/A330L/I332E) (antibody) heavy: QVQLVQSGAEVKKPGSSVKVSCKASGYAFSNYLIEWVRQAPGQGLEWMGLINPGSGGTNYNEKFKGKVTITADKSTSTAYMELSSLRSEDTAVYYCARVYYGNTFAYWGQGTLVTVSSASTKGPSVFPLAPSSKSTSGGTAALGCLVKDYFPEPVTVSWNSGALTSGVHTFPAVLQSSGLYSLSSVVTVPSSSLGTQTYICNVNHKPSNTKVDKKVEPKSCDKTHTCPPCPAPELLGGPDVFLFPPKPKDTLMISRTPEVTCVVVDVSHEDPEVKFNWYVDGVEVHNAKTKPREEQYNSTYRVVSVLTVLHQDWLNGKEYKCKVSNKALPLPEEKTISKAKGQPREPQVYTLPPSRDELTKNQVSLTCLVKGFYPSDIAVEWESNGQPENNYKTTPPVLDSDGSFFLYSKLTVDKSRWQQGNVFSCSVMHEALHNHYTQKSLSLSPGK light: not shown	–
–	–	–	0.973 µg/mL	–	–	Ab60 (L12, H51, hIgG1 Fc S239D/A330L/I332E) (antibody) heavy: QVQLVQSGAEVKKPGSSVKVSCKASGYAFSNYLIEWVKQAPGQGLEWIGLINPGSGGTNYNEKFKGKATITADKSTSTAYMELSSLRSEDTAVYYCARVYYGNSFAYWGQGTLVTVSSASTKGPSVFPLAPSSKSTSGGTAALGCLVKDYFPEPVTVSWNSGALTSGVHTFPAVLQSSGLYSLSSVVTVPSSSLGTQTYICNVNHKPSNTKVDKKVEPKSCDKTHTCPPCPAPELLGGPDVFLFPPKPKDTLMISRTPEVTCVVVDVSHEDPEVKFNWYVDGVEVHNAKTKPREEQYNSTYRVVSVLTVLHQDWLNGKEYKCKVSNKALPLPEEKTISKAKGQPREPQVYTLPPSRDELTKNQVSLTCLVKGFYPSDIAVEWESNGQPENNYKTTPPVLDSDGSFFLYSKLTVDKSRWQQGNVFSCSVMHEALHNHYTQKSLSLSPGK light: not shown	ADCC EC50 (PBMC对hCLDN18.2+细胞, LDH) [5]: 0.431 µg/mL
–	–	–	–	–	–	Ab22 (轻链CDR1 NS-> TS, 重链 CDR3 NS-> NT) (antibody, V domains shown) VH: EVMLVESGGGLVKPGGSLKLSCAASGFTFSSYTMSWVRQTPEKRLEWVATIIGGYGNTYYADSVKGRFTISRDSAKNTLYLQMISLRSEDTALYYCTRLGQTQRNAMDYWGQGTSVTVSS VL: DILMTQSPSSLSVSAGEKVTMSCKSSQSLLNSGNQKNYLAWYQQKPGQPPKLLIYGASTRESGVPDTFTGSGSGTDFTLTISSVQAEDLAVYYCQNDYYYPFTFGAGTKLEL	EC50 [9]: 1370 pM
